Consider ten molecules from US20220177594A1.

Substitutions are numbered along the chain they refer to.

To fix the notation:
B1: CAN_09E09_1.2 (antibody)
heavy: EVQLVESGGDLVKPGGSLRLSCVASGFTFSSYAMSWVRQAPGKGLQWVAYISSGGDYIYYADTVKGRFTISRDNAKNTLYLQMNSLRAEDTAMYYCVRDPITGTFAYWGQGTLVTVSSASTTAPSVFPLAPSCGSTSGSTVALACLVSGYFPEPVTVSWNSGSLTSGVHTFPSVLQSSGLYSLSSMVTVPSSRWPSETFTCNVAHPASKTKVDKPVPKRENGRVPRPPDCPKCPAPEMLGGPSVFIFPPKPKDTLLIARTPEVTCVVVDLDPEDPEVQISWFVDGKQMQTAKTQPREEQFNGTYRVVSVLPIGHQDWLKGKQFTCKVNNKALPSPIERTISKARGQAHQPSVYVLPPSREELSKNTVSLTCLIKDFFPPDIDVEWQSNGQQEPESKYRTTPPQLDEDGSYFLYSKLSVDKSRWQRGDTFICAVMHEALHNHYTQESLSHSPGK
light: DIVLTQPTSVSGSLGQRVTISCRASQDINNYLNWYQQLPGKAPKLLVYYTSTLHSGVPDRFSGSNSGSSATLTITGLQAEDEADYYCQQGNTLPWTFGQGTRNDAQPAVYLFQPSPDQLHTGSASVVCLLNSFYPKDINVKWKVDGVIQDTGIQESVTEQDKDSTYSLSSTLTMSSTEYLSHELYSCEITHKSLPSTLIKSFQRSEC
B2: FEL_10F07_2.2 (antibody)
heavy: DVQLVESGGDLVKPGGSLRLTCVASGFTFSSYAMSWVRQAPGKGLQWVAYISSGGDYFYYADTVKGRFTISRDDAKNTLYLQMSSLKTEDTATYYCTGDPITGTFAYWGQGTLVTVSSASTTAPSVFPLAPSCGTTSGATVALACLVLGYFPEPVTVSWNSGALTSGVHTFPAVLQASGLYSLSSMVTVPSSRWLSDTFTCNVAHPPSNTKVDKTVRKTDHPPGPKPCDCPKCPPPEAAGAPSIFIFPPKPKDTLSISRTPEVTCLVVDLGPDDSDVQITWFVDNTQVYTAKTSPREEQFNSTYRVVSVLPILHQDWLKGKEFKCKVNSKSLPSPIERTISKAKGQPHEPQVYVLPPAQEELSRNKVSVTCLIKSFHPPDIAVEWEITGQPEPENNYRTTPPQLDSDGTYFVYSKLSVDRSHWQRGNTYTCSVSHEALHSHHTQKSLTQSPGK
light: DITMTQSPGSLAGSPGQQVTMNCRASQDITNYLNWYQQKPGQHPKLLIYYTSTLHSGVPDRFSGSGSGTDFTLTISNLQAEDVASYYCQQGHMLPWTFGQGTRSDAQPSVFLFQPSLDELHTGSASIVCILNDFYPKEVNVKWKVDGVVQNKGIQESTTEQNSKDSTYSLSSTLTMSSTEYQSHEKFSCEVTHKSLASTLVKSFQRSECQRE
B3: CAN_19F07_1.1 (antibody)
heavy: EVQLVESGGDLVKPGGSLRLSCVASGFTFSDYYMAWVRQAPGKGLQWVANINYDGSSTYYLDSLKSRFTISRDNAKNTLYLQMNSLRAEDTAMYYCVRGLTWDFDVWGQGTLVTVSSASTTAPSVFPLAPSCGSTSGSTVALACLVSGYFPEPVTVSWNSGSLTSGVHTFPSVLQSSGLYSLSSMVTVPSSRWPSETFTCNVAHPASKTKVDKPVPKRENGRVPRPPDCPKCPAPEMLGGPSVFIFPPKPKDTLLIARTPEVTCVVVDLDPEDPEVQISWFVDGKQMQTAKTQPREEQFNGTYRVVSVLPIGHQDWLKGKQFTCKVNNKALPSPIERTISKARGQAHQPSVYVLPPSREELSKNTVSLTCLIKDFFPPDIDVEWQSNGQQEPESKYRTTPPQLDEDGSYFLYSKLSVDKSRWQRGDTFICAVMHEALHNHYTQESLSHSPGK
light: EIVMTQSPASLSLSQEEKVTITCKASQDVDTAVAWYQQKPGQAPKLLIYLASTRHTGVPSRFSGSGSGTDFSFTISSLEPEDVAVYYCQQYSRFPLTFGQGTRNDAQPAVYLFQPSPDQLHTGSASVVCLLNSFYPKDINVKWKVDGVIQDTGIQESVTEQDKDSTYSLSSTLTMSSTEYLSHELYSCEITHKSLPSTLIKSFQRSEC
B4: CAN_19F07_2.1 (antibody)
heavy: B3 heavy with G15A, R19T, V23L, A40T, G42E, A88D, M93V, V97A
light: B3 light
B5: CAN_19F07_2.2 (antibody)
heavy: B3 heavy with G15A, R19T, V23L, A40T, G42E, A88D, M93V, V97A
light: DIVMTQTPLSLSVSPGETASISCKASQDVDTAVAWFRQKPGQSPQRLIYLASTRHTGVPDRFSGSGSGTDFTLRISRVEADDTGVYYCQQYSRFPLTFGQGTRNDAQPAVYLFQPSPDQLHTGSASVVCLLNSFYPKDINVKWKVDGVIQDTGIQESVTEQDKDSTYSLSSTLTMSSTEYLSHELYSCEITHKSLPSTLIKSFQRSEC
B6: Canine_OSM (ligand)
chain: SCSDKYPELLGQLQKQADFMQHTNTLLDLYIRSQGLDKNGLKEHCRERPGAFPSKDALQRLSRRVFLRTLDTTLGQVLLRLAALEQDIPKAQDLEMLSGVKLNIRGFKNNIHCMAQLLPGSSETTEPTPTSPGASPSPTPTLDTFQRRLEGCRFLHGYHRFMRSVGQVFREWGKSLSRSRR
B7: FEL_19F07_1.1 (antibody)
heavy: DVQLVESGGDLVKPGGSLRLTCVASGFTYSDYYMAWVRQAPGKGLQWVANINYDGSSTYYLDSLKSRFTISRDNAKNTLYLQMNSLKTEDTATYYCVRGLTWDFDVWGQGTLVTVSSASTTAPSVFPLAPSCGTTSGATVALACLVLGYFPEPVTVSWNSGALTSGVHTFPAVLQASGLYSLSSMVTVPSSRWLSDTFTCNVAHPPSNTKVDKTVRKTDHPPGPKPCDCPKCPPPEAAGAPSIFIFPPKPKDTLSISRTPEVTCLVVDLGPDDSDVQITWFVDNTQVYTAKTSPREEQFNSTYRVVSVLPILHQDWLKGKEFKCKVNSKSLPSPIERTISKAKGQPHEPQVYVLPPAQEELSRNKVSVTCLIKSFHPPDIAVEWEITGQPEPENNYRTTPPQLDSDGTYFVYSKLSVDRSHWQRGNTYTCSVSHEALHSHHTQKSLTQSPGK
light: EIQMTQSPSSLSASPGDRVTITCKASQDVDTAVAWYQQKPGKVPKLLIYLASTRHTGVPSRFSGSGSGTDFTLTISSLEPEDAATYYCQQYSRFPLTFGQGTRSDAQPSVFLFQPSLDELHTGSASIVCILNDFYPKEVNVKWKVDGVVQNKGIQESTTEQNSKDSTYSLSSTLTMSSTEYQSHEKFSCEVTHKSLASTLVKSFQRSECQRE
B8: FEL_19F07_2.1 (antibody)
heavy: B7 heavy with D10N, Y29F, V97A
light: B7 light
B9: FEL_19F07_1.2 (antibody)
heavy: B7 heavy
light: DITMTQSPGSLAGSPGQQVTMNCKASQDVDTAVAWYQQKPGQHPKLLIYLASTRHTGVPDRFSGSGSGTDFTLTISNLQAEDVASYYCQQYSRFPLTFGQGTRSDAQPSVFLFQPSLDELHTGSASIVCILNDFYPKEVNVKWKVDGVVQNKGIQESTTEQNSKDSTYSLSSTLTMSSTEYQSHEKFSCEVTHKSLASTLVKSFQRSECQRE
B10: FEL_19F07_2.2 (antibody)
heavy: B7 heavy with D10N, Y29F, V97A
light: B9 light

The target in one assay is Feline_OSMR_hlgG1_Fc (feline). As to the kind of experiment: SPR Biacore. (In SPR one partner is held on a chip, and binding of the other changes the refractive index at the surface.)
Chain of Feline_OSMR_hlgG1_Fc (feline) (chain, as listed by the source limits assumed, form in doubt): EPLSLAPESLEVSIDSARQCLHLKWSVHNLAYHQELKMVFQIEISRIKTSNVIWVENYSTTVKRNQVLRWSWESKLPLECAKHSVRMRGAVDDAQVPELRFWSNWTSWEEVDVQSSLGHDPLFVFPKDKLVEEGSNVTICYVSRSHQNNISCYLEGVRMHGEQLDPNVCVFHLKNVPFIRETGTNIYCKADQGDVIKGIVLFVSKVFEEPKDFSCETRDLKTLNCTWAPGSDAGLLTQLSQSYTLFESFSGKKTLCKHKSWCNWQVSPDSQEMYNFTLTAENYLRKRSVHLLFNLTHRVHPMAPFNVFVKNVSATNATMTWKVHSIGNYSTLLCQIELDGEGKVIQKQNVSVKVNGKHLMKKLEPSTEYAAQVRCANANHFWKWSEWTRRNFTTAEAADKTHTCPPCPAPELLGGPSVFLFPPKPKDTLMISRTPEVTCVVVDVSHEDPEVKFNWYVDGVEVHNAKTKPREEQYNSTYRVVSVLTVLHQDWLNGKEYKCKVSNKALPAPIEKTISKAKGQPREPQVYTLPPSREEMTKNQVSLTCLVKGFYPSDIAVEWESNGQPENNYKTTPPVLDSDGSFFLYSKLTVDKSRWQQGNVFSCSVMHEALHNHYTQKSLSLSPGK
With B1, the Kd (usually the concentration at which binding is half-saturated) came out at 11 nM; the dissociation rate constant (koff) (as a rule, the rate constant with which the complex falls apart) was 0.00184 s⁻¹; the kon (commonly the rate constant with which the complex forms) came to 167000 M⁻¹ s⁻¹.
For B2, in that order: 1.21 nM, 0.000457 s⁻¹ and 376000 M⁻¹ s⁻¹.
In turn, B3 gave a Kd of 0.32 nM, a koff of 3.55e-05 s⁻¹ and an on-rate constant (kon) of 111000 M⁻¹ s⁻¹.
For B4 the same measures were 0.198 nM, 1.12e-05 s⁻¹ and 56700 M⁻¹ s⁻¹.
For B5 the same measures were 24 nM, 0.00113 s⁻¹ and 47000 M⁻¹ s⁻¹.
The molecule B6 gave a Kd of 41.1 nM, an off-rate constant (koff) of 0.00423 s⁻¹ and a kon of 103000 M⁻¹ s⁻¹.
For B7 the same measures were 0.783 nM, 6.37e-05 s⁻¹ and 81300 M⁻¹ s⁻¹.
For B8 the same measures were 0.108 nM, 4.07e-07 s⁻¹ and 3790 M⁻¹ s⁻¹.
Molecule B9 gave a Kd of 0.435 nM, a koff of 1.95e-05 s⁻¹ and a kon of 44700 M⁻¹ s⁻¹.
Take B10: the Kd turned out to be 0.00332 nM, the koff was 5.62e-07 s⁻¹ and the kon was 169000 M⁻¹ s⁻¹.

The target in a further assay is Canine_OSMR_hlgG1_Fc (canine). The experiment in a line: SPR Biacore.
Chain of Canine_OSMR_hlgG1_Fc (canine) (chain, as listed by the source limits assumed, form in doubt): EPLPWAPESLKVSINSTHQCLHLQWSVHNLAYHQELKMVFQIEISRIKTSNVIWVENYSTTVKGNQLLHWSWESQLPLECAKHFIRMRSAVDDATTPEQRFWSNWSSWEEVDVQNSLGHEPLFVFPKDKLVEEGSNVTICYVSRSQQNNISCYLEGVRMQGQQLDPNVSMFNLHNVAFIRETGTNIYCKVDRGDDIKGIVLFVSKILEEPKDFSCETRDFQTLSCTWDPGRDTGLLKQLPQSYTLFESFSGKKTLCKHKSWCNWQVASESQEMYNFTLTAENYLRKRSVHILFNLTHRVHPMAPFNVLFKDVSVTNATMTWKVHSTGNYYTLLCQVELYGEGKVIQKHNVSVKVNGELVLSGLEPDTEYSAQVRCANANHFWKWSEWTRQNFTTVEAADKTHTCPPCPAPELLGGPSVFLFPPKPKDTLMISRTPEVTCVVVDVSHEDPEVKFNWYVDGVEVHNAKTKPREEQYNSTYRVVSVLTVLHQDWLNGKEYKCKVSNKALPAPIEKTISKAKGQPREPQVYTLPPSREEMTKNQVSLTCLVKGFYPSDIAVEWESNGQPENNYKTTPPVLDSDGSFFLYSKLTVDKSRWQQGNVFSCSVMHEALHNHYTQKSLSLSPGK
Molecule B1 showed a Kd of 37.7 nM, a koff of 0.00108 s⁻¹ and an on-rate constant (kon) of 28600 M⁻¹ s⁻¹.
For B2, in that order: 4.99 nM, 0.000903 s⁻¹ and 181000 M⁻¹ s⁻¹.
For B3, in that order: 9.13 nM, 0.000334 s⁻¹ and 36600 M⁻¹ s⁻¹.
For B4 the same measures were 8.3 nM, 0.00022 s⁻¹ and 26400 M⁻¹ s⁻¹.
B6: the Kd was found to be 43.6 nM, the koff worked out at 0.003 s⁻¹ and the kon stood at 68700 M⁻¹ s⁻¹.
For B7 the same measures were 10.3 nM, 0.000294 s⁻¹ and 28500 M⁻¹ s⁻¹.
For B9 the same measures were 31 nM, 0.000327 s⁻¹ and 10500 M⁻¹ s⁻¹.
B10 registered a Kd of 4.4 nM, a koff of 0.000215 s⁻¹ and a kon of 48800 M⁻¹ s⁻¹.
